Experimental data as given in patent US20190134153A1, “IMMUNOMODULATORY EFFECT OF INHALED KINASE INHIBITOR PEPTIDES IN LUNG” (MOERAE MATRIX, INC., priority 2017, published 2019).

Columns and labels:
Assay in all cases: Kinase Profiling Assay
Assay type in all cases: biochemical
Conditions in all cases: 100 μM
Abl (H396P) (h) = Abl (H396P) (h) (Homo sapiens, UniProt P00519, H396P)
Lck(h) = Lck(h) (Homo sapiens, UniProt P06239)
PAK3(h) = PAK3(h) (Homo sapiens, UniProt O75914)
HIPK3(h) = HIPK3(h) (Homo sapiens, UniProt Q9H422)
MKK7β(h) = target: T1, MKK7β(h) (Homo sapiens, UniProt O14733)
T1 sequence (O14733 1-419): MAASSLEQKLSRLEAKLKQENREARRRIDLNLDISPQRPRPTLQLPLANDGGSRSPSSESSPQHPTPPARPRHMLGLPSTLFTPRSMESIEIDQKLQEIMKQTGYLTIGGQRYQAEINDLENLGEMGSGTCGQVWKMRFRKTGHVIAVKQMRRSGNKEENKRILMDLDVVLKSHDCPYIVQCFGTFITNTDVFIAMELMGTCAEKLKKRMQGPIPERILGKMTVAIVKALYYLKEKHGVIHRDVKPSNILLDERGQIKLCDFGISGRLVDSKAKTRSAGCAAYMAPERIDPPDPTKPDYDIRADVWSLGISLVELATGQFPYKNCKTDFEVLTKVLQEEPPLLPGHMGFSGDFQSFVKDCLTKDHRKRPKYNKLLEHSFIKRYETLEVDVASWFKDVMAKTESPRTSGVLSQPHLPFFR

CK1γ3(h) = CK1γ3(h) (Homo sapiens, UniProt Q9Y6M4)
JNK1α1(h) = JNK1α1(h) (Homo sapiens, UniProt P45983)
Tie2(R849W)(h) = Tie2(R849W)(h) (Homo sapiens, UniProt Q02763, R849W)
GRK5(h) = GRK5(h) (Homo sapiens, UniProt P34947)
JAK3(h) = target: T2, JAK3(h) (Homo sapiens, UniProt P52333)
T2 sequence (P52333 1-1124): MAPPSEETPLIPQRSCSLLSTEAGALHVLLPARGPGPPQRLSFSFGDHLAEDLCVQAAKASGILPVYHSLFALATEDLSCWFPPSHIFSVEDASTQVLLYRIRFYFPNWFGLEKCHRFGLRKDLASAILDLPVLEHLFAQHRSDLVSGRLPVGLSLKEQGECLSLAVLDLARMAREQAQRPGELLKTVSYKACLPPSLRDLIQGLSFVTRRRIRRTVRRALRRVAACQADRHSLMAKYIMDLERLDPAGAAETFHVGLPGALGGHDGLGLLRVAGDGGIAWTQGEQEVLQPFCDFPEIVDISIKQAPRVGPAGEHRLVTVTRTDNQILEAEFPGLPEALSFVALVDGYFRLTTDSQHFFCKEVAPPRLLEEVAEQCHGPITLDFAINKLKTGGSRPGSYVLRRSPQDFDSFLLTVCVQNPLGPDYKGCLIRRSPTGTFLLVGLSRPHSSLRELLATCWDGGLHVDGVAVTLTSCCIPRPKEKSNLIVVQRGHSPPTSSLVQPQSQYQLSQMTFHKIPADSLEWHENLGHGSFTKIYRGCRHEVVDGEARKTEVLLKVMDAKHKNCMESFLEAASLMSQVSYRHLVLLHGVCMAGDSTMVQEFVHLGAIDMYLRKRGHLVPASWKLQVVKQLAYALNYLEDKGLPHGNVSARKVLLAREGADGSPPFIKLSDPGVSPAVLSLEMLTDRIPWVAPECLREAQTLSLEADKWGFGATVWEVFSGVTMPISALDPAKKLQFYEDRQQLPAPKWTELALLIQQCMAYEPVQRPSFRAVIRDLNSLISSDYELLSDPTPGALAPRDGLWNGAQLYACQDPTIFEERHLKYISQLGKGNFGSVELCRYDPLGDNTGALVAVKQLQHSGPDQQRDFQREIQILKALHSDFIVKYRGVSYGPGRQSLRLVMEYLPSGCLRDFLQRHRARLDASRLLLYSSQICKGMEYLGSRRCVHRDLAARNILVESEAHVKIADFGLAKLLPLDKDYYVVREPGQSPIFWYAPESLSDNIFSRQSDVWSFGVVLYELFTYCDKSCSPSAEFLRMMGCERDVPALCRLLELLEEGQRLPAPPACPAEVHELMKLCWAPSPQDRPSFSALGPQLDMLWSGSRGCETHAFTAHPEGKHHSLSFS

Snk(h) = Snk(h) (Homo sapiens, UniProt Q9NYY3)
MRCKα(h) = MRCKα(h) (Homo sapiens, UniProt Q5VT25)
cKit(V560G)(h) = cKit(V560G)(h) (Homo sapiens, UniProt P10721, V560G)
CK2α2(h) = CK2α2(h) (Homo sapiens, UniProt P19784)
IGF-1R(h) = IGF-1R(h) (Homo sapiens, UniProt P08069)
PKA(h) = PKA(h) (Homo sapiens, UniProt P17612)

Snk(h), sequence (Q9NYY3 whole entry): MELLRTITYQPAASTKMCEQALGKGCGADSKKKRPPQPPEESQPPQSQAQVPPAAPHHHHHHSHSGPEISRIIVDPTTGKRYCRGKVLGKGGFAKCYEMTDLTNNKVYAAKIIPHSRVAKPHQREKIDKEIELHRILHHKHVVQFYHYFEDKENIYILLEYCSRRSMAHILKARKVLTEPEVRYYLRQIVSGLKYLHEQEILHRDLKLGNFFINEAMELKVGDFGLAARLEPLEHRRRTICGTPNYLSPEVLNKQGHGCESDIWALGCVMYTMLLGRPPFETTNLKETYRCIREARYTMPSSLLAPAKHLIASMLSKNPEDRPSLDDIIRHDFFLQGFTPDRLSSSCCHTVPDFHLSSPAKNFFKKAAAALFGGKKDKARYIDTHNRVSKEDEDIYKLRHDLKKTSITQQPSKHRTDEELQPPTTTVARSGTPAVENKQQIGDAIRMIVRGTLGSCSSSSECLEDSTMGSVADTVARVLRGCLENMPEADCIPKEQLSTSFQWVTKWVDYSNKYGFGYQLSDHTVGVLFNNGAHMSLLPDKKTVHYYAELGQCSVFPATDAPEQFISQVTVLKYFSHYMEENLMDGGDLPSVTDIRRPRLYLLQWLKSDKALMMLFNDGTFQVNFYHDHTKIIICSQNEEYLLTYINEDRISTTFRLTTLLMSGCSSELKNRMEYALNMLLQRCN
MRCKα(h), sequence (Q5VT25 whole entry): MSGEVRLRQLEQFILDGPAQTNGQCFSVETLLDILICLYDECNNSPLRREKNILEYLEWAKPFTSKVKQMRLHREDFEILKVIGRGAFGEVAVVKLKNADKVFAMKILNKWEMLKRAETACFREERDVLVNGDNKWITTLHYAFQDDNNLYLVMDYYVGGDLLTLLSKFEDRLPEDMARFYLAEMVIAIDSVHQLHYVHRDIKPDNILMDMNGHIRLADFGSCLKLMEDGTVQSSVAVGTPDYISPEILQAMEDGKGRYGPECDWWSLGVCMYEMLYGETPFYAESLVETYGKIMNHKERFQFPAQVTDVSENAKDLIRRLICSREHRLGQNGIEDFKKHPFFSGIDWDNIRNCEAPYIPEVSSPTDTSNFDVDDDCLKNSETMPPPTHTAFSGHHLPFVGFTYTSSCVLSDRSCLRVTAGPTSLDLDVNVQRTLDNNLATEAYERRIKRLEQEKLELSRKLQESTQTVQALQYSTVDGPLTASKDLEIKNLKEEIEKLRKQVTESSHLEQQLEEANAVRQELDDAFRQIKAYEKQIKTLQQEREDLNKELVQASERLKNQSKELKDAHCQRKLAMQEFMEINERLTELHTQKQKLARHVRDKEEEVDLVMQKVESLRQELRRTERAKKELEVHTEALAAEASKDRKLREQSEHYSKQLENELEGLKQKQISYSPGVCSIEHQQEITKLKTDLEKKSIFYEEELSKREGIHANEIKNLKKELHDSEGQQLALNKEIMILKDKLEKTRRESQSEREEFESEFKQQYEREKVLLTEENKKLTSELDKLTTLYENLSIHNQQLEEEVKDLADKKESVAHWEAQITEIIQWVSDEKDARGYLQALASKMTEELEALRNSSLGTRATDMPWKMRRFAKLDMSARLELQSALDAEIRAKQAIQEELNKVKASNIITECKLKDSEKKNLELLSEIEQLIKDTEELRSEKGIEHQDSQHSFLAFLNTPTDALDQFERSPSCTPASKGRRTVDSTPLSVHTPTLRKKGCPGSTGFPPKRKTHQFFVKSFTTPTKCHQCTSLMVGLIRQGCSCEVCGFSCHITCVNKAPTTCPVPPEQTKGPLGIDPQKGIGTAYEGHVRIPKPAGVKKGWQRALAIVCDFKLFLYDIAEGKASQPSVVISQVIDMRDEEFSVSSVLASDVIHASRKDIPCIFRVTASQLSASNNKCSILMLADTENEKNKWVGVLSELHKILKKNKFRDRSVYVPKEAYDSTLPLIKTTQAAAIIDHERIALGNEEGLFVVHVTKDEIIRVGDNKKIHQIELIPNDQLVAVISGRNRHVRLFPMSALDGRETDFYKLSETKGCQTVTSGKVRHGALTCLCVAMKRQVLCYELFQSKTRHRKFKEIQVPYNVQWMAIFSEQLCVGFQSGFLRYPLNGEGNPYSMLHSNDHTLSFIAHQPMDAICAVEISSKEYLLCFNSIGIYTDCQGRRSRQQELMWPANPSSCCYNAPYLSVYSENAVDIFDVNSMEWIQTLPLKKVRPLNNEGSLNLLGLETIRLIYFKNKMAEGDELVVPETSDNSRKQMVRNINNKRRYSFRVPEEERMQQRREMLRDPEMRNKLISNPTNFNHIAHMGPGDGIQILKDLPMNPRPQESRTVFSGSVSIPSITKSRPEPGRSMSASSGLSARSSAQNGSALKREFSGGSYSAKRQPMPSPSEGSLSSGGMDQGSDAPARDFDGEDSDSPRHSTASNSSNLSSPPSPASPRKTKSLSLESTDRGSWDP
CK1γ3(h), sequence (Q9Y6M4 whole entry): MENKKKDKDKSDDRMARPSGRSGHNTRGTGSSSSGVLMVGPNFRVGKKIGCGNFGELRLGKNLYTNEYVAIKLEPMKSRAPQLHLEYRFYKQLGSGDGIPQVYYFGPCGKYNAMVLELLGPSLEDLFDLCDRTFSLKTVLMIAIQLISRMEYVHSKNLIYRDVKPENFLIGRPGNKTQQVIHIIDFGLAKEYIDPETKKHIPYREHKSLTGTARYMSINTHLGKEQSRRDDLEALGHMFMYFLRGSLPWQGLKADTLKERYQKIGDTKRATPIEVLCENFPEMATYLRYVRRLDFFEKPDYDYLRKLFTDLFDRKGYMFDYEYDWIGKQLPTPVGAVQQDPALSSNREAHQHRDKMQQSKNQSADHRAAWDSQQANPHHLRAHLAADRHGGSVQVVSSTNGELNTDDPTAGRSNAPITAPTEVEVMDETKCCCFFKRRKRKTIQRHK
HIPK3(h), sequence (Q9H422 whole entry): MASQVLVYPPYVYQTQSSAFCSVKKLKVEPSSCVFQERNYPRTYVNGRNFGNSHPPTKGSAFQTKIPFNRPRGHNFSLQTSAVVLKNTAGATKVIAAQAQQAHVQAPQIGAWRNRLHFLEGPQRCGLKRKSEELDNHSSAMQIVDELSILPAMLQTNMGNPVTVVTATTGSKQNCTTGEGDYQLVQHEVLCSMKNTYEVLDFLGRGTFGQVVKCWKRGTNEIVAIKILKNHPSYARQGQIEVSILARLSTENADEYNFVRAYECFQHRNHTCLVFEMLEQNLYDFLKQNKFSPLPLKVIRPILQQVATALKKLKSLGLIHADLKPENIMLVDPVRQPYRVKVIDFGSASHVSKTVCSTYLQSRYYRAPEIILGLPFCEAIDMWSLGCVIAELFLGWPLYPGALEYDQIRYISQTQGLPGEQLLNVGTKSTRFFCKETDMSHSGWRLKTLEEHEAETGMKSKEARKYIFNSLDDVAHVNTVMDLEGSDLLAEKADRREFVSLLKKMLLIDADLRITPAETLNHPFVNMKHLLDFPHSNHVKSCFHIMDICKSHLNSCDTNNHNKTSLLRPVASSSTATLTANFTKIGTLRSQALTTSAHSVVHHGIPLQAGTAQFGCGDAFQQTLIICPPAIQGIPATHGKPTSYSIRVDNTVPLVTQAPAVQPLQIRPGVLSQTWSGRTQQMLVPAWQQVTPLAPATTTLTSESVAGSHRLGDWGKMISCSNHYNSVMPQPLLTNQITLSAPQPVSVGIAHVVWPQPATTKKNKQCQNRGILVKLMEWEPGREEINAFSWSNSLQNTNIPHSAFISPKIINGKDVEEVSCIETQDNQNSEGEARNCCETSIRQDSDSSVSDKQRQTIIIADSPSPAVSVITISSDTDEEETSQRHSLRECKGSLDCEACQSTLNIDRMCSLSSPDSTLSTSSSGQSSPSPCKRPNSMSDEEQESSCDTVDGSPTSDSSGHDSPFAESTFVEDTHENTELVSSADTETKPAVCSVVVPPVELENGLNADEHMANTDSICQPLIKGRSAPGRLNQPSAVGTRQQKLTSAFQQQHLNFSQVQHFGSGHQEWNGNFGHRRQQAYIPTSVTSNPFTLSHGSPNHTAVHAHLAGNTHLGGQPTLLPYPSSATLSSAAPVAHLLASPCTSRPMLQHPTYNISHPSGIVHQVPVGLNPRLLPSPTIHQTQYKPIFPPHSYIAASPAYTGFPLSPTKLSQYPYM
CK2α2(h), sequence (P19784 whole entry): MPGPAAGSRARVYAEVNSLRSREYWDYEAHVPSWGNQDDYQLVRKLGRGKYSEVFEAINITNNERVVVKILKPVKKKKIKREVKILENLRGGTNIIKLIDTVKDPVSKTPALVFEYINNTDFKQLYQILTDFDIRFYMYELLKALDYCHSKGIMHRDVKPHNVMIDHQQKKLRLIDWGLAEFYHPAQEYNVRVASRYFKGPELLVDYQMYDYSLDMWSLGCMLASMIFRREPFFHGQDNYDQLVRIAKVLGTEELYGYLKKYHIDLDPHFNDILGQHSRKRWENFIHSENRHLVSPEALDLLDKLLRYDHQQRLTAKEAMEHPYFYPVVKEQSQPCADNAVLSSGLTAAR
Lck(h), sequence (P06239 whole entry): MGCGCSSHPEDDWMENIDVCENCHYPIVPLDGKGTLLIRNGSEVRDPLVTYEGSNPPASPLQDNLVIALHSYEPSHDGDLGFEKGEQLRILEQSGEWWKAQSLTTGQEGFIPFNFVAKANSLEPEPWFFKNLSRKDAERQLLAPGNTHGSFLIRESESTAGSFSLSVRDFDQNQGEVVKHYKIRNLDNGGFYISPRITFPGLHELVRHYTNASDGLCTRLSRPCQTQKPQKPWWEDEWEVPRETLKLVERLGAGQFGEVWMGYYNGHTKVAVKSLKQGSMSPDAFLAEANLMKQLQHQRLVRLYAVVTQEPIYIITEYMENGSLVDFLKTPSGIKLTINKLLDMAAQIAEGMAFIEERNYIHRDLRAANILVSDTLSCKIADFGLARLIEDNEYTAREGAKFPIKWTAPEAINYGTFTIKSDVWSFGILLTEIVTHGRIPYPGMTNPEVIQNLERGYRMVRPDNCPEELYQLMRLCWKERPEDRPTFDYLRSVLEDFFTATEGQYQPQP

| Sequence | % activity (Abl (H396P) (h)) | % activity (Lck(h)) | % activity (PAK3(h)) | % activity (HIPK3(h)) | % activity (MKK7β(h)) | % activity (CK1γ3(h)) | % activity (JNK1α1(h)) | % activity (Tie2(R849W)(h)) | % activity (GRK5(h)) | % activity (JAK3(h)) | % activity (Snk(h)) | % activity (MRCKα(h)) | % activity (cKit(V560G)(h)) | % activity (CK2α2(h)) | % activity (IGF-1R(h)) | % activity (PKA(h)) |
| --- | --- | --- | --- | --- | --- | --- | --- | --- | --- | --- | --- | --- | --- | --- | --- | --- |
| FAKLAARLYRKALARQLGVAA [MMI-0300] | 101% | −2% | 140% | 93% | 100% | 125% | 97% |  |  |  |  |  |  |  |  |  |
| KAFAKLAARLYRKALARQLGVAA [MMI-0400] |  |  |  |  | 94% |  | 98% | 108% | 131% | 122% | 131% | 97% | 124% | 96% | 90% |  |
| YARAAARQARAKALNRQLGVA [MMI-0200] |  |  | 50% |  |  | 96% |  | 89% | 135% |  |  |  |  | 88% | 49% | 110% |
| HRRIKAWLKKIKALARQLGVAA [MMI-0500] | 51% | 359% |  | 85% |  |  |  |  |  | 95% | 122% | 5% | 198% |  |  | 118% |
